Experimental data from patent publication US20190169308A1 (ALLIGATOR BIOSCIENCE, published 2019).

Assays:
[1] = target: T1, human/mouse CD137 chimera 1555; assay: flow cytometry, 293-F cells with CD137 chimera
T1 construct: on transfected FreeStyle 293-F cells
Protocol: (§1) The ability of each antibody to bind to a panel of human/mouse CD137 chimeras expressed on the surface of transfected cells was analyzed by flow cytometry.
(§2) The chimeras were designed by exchanging domains or modules of the human CD137 with the corresponding mouse domain (FIG. 7). Genes of CD137 human/mouse chimeras were synthesized (GenScript) and constructs cloned into pcDNA3.1 vector (Invitrogen) and transiently transfected into FreeStyle 293-F cells (Invitrogen). The transfected cells were incubated with CD137 antibodies and control antibodies, followed by incubation with anti-human IgG-PE (Jackson Immunoresearch) for detection and analyzed with FACS Verse (BD Biosciences). Binding to the different chimeric constructs was calculated as relative MFI compared to the binding of the isotype control, followed by normalization to the full-length human CD137 construct to minimize the effect of affinity differences between individual antibodies.

[2] = target: T2, human/mouse CD137 chimera 1552; assay: flow cytometry, 293-F cells with CD137 chimera
T2 construct: on transfected FreeStyle 293-F cells
Protocol: as §1, §2

[3] = target: T3, human/mouse CD137 chimera 1554; assay: flow cytometry, 293-F cells with CD137 chimera
T3 construct: on transfected FreeStyle 293-F cells
Protocol: as §1, §2

[4] = target: T4, human/mouse CD137 chimera 1553; assay: flow cytometry, 293-F cells with CD137 chimera
T4 construct: on transfected FreeStyle 293-F cells
Protocol: as §1, §2

[5] = target: T5, human/mouse CD137 chimera 1550; assay: flow cytometry, 293-F cells with CD137 chimera
T5 construct: on transfected FreeStyle 293-F cells
Protocol: as §1, §2

[6] = target: T6, human/mouse CD137 chimera 1551; assay: flow cytometry, 293-F cells with CD137 chimera
T6 construct: on transfected FreeStyle 293-F cells
Protocol: as §1, §2

[7] = target: T7, CD40-Fc (Ancell #504-820) (human, UniProt P25942 21-193); assay: ELISA, coated CD40-Fc
T7 construct: not shown: Fc part, bought reagent, not described
Protocol: (§3) ELISA plates (Greiner #655074) were coated with 50 μl/well of recombinant human OX40 (R&D #1493-CD), CD40-Fc (Ancell #504-820) or CD137 (R&D #838-4B) diluted to a final concentration of 0.5 μg/ml in PBS for 1h at 37° C. or overnight at 4° C. Plates were washed with PBS+0.05% TWEEN20 (PBST), followed by block with PBST+1% bovine serum albumin (BSA). Antibody samples were prepared as serial 1/10 dilutions from 10-0.01 μg/ml in PBST+1% BSA and incubated for 1 h in room temperature, followed by detection using a horse radish peroxidase-conjugated anti-human kappa light chain antibody (AbD Serotec #STAR127P) and developed using SuperSignal ELISA Pico Chemiluminescent substrate (Pierce ThermoScientific #37069).

[8] = target: T8, full-length human CD137 construct 1030 (human, UniProt Q07011 24-255); assay: flow cytometry, 293-F cells with full-length CD137 (reference of the normalization)
T8 construct: whole, on cells; on transfected FreeStyle 293-F cells; also called Full-length CD137
Protocol: as §1, §2

[9] = target: T9, human CD137 on transfected CHO cells (human, UniProt Q07011 24-186; P25942 194-277, limits assumed); assay: flow cytometry, CHO-huCD137; 95% CI of EC50
T9 construct: extracellular domain;domain: transmembrane and intracellular part; also called CHO-huCD137; CHOhCD137
Protocol: Binding and EC50 was determined using flow cytometric analysis of CHO cells transfected with human CD137, cynomolgus CD137 or empty vector. The extracellular part of human or cynomolgus CD137 was fused to the transmembrane and intracellular part of human CD40 and cloned into pcDNA3.1. The vector was subsequently stably transfected into CHO cells. […] CD137-transfected and empty vector-transfected cells were incubated with CD137 antibodies for at least 1h at 4° C. to saturate the binding. In order to minimize antibody internalization, 0.05% sodium azide was used in the incubation buffer and all work was performed on ice. […] Directly after staining the cells were fixed with a paraformaldehyde solution (10x concentrate BD CellFIX, BD biosciences #340181). Cells were analyzed by flow cytometry using FACSVerse (BD Biosciences). The median fluorescence intensity (MFI) for each sample was determined and the dose response data was analysed using Graph Pad Prism.
MFI data was normalized for each antibody, where 0% is defined as the lowest value and 100% is the highest value in the dose titration for each antibody.

[10] = target: T10, recombinant human OX40 (R&D #1493-CD) (human, UniProt P43489 29-216, limits assumed); assay: ELISA, coated OX40
T10 sequence (looked up): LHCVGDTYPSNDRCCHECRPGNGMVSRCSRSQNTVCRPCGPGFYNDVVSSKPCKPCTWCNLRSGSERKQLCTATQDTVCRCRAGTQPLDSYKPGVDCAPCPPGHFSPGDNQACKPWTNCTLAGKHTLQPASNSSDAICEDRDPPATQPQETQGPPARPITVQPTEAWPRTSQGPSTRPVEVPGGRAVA
Protocol: as §3

[11] = target: T11, recombinant human CD137-Fc (R&D #838-4B) (human, UniProt Q07011 24-186); assay: ELISA, coated CD137-Fc
T11 construct: bought; also called CD137 (R&D #838-4B); not shown: Fc part, bought reagent, not described
Protocol: Binding of CD137 antibodies to recombinant human CD137 was determined by sandwich ELISA. Briefly, ELISA plates (Greiner #655074) coated with recombinant human CD137-Fc (R&D #838-4B) were incubated with serial dilutions of the various CD137 antibodies to be investigated. CD137 antibodies were detected using HRP-conjugated goat-anti-human kappa light chain (AbD Serotec #STAR127P) and developed with SuperSignal ELISA Pico Chemiluminescent substrate (Pierce #37069). EC50 values of the various antibodies were determined in 2-6 separate experiments.

T7 sequence (P25942 21-193 limits assumed): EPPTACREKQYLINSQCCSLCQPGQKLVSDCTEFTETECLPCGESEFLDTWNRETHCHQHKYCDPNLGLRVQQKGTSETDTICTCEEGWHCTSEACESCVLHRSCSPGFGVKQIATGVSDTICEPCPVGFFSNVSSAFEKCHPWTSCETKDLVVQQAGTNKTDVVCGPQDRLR
T9 sequence (Q07011 other isoform, or with tags, fused parts or gaps limits assumed): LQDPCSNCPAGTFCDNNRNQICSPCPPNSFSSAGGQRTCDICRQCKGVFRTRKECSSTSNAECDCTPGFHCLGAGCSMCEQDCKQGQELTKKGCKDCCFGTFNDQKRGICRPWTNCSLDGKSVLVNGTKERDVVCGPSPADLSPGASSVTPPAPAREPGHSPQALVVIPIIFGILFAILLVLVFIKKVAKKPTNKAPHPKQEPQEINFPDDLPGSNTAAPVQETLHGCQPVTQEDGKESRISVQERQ
T11 sequence (Q07011 24-186 limits assumed): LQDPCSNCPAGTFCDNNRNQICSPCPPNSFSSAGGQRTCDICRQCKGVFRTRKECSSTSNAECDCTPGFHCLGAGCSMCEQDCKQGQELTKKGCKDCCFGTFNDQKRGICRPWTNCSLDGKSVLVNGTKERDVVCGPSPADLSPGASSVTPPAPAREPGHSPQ
T8 sequence (Q07011 24-255): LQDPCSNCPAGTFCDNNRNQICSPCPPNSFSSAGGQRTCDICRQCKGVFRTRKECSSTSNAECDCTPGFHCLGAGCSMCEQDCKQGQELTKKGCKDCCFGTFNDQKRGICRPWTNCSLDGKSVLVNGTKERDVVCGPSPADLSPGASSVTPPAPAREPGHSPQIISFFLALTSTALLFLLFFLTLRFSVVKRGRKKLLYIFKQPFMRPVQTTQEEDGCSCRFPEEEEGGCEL

Row | Binder | MFI/isotype control normalized to full-length human CD137 [1] | MFI/isotype control normalized to full-length human CD137 [2] | MFI/isotype control normalized to full-length human CD137 [3] | MFI/isotype control normalized to full-length human CD137 [4] | MFI/isotype control normalized to full-length human CD137 [5] | MFI/isotype control normalized to full-length human CD137 [6] | binding result [7] | MFI/isotype control normalized to full-length human CD137 [8] | EC50 [9] | binding result [10] | EC50 [11]
1 | 1200/1201 (antibody, V domains shown) VH: EVQLLESGGGLVQPGGSLRLSCAASGFTFSSYAMSWVRQAPGKGLEWVSGISGGGGGTYYADSVKGRFTISRDNSKNTLYLQMNSLRAEDTAVYYCARDVAYFDYWGQGTLVTVSS VL: DIQMTQSPSSLSASVGDRVTITCRASQSISSYLNWYQQKPGKAPKLLIYAASSLQSGVPSRFSGSGSGTDFTLTISSLQPEDFATYYCQQYYIPHTFGQGTKLEIK | 0.24 | 0.05 | 0.84 | 0.65 | 0.05 | 0.04 | no binding (tested: 10 µg/ml) | 1 | 0.2 to 0.36 µg/mL | no binding (tested: 10 µg/ml) | 0.39 nM
2 | 1620/1621 (antibody, V domains shown) VH: EVQLLESGGGLVQPGGSLRLSCAASGFTFSGYYMYWVRQAPGKGLEWVSGISSSGSYTYYADSVKGRFTISRDNSKNTLYLQMNSLRAEDTAVYYCARSVGPYFDYWGQGTLVTVSS VL: DIQMTQSPSSLSASVGDRVTITCRASQSISSYLNWYQQKPGKAPKLLIYAASSLQSGVPSRFSGSGSGTDFTLTISSLQPEDFATYYCQQGVGPYTFGQGTKLEIK | 0.32 | 0.18 | 0.17 | 0.17 | 0.17 | 0.33 | no binding (tested: 10 µg/ml) | – | – | no binding (tested: 10 µg/ml) | –
3 | 1204/1205 (antibody, V domains shown) VH: EVQLLESGGGLVQPGGSLRLSCAASGFTFSSYYMGWVRQAPGKGLEWVSGIGSYYGYTGYADSVKGRFTISRDNSKNTLYLQMNSLRAEDTAVYYCARAYYDYNYYYAYFDYWGQGTLVTVSS VL: DIQMTQSPSSLSASVGDRVTITCRASQSISSYLNWYQQKPGKAPKLLIYAASSLQSGVPSRFSGSGSGTDFTLTISSLQPEDFATYYCQQSVPHYPFTFGQGTKLEIK | 0.28 | 0.13 | 0.73 | 0.85 | 0.07 | 0.11 | no binding (tested: 10 µg/ml) | – | – | no binding (tested: 10 µg/ml) | –
4 | 1626/1627 (antibody, V domains shown) VH: EVQLLESGGGLVQPGGSLRLSCAASGFTFGGYSMYWVRQAPGKGLEWVSSIGGYYYSTYYADSVKGRFTISRDNSKNTLYLQMNSLRAEDTAVYYCARSYYGSIDYWGQGTLVTVSS VL: DIQMTQSPSSLSASVGDRVTITCRASQSISSYLNWYQQKPGKAPKLLIYAASSLQSGVPSRFSGSGSGTDFTLTISSLQPEDFATYYCQQGTGYGPLTFGQGTKLEIK | 0.29 | 0.11 | 0.12 | 0.14 | 0.1 | 0.11 | no binding (tested: 10 µg/ml) | – | – | no binding (tested: 10 µg/ml) | –
